Here are results for four molecules from patent US20220194997A1 (CHINESE UNIVERSITY OF HONG KONG, published 2022).

The target of assay [1] is T1, SUMO1(15-55) (human, Where it is the MST target, it carries Alexa Fluor 647 NHS ester on amines (NHS-647); the letters do not show this.).
T1 construct: Fragment 15-55 of human SUMO1; Recombinant SUMO1 fragments were made with an N-terminal His-tag removed by thrombin; also called SUMO(15-55); SUMO1(15-55) peptide
T1 peptide: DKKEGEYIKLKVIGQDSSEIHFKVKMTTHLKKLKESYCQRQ
Description: MST (FIG. 11b). As for the experimental part:
Unreacted dye was removed with desalting column (2K MWCO, Bio-Rad). The purity was monitored by measuring the ratio of protein to dye after the clean-up procedure. The labelled targets were adjusted to appropriate concentration for detection and kept in ddH2O with 0.1% Tween 20, meanwhile, the ligands were maintained in corresponding buffer (peptides: ddH2O; α-synuclein proteins: 20 mM HEPES, 150 mM NaCl, pH 7.4). For each assay, unlabelled ligand was mixed with equal volume of labelled protein target at 16 different serially diluted concentrations at room temperature.

Assay [2] addresses human wild-type α-synuclein (full-length) (human, UniProt P37840 1-140). Description: MST (FIG. 7).
In assay [3] the target is T1, SUMO1(15-55). Nature of the assay: MST; NHS-647 labelled SUMO1(15-55) as target, peptide titrated as ligand. How it is done: The labelling reaction was performed according to the manufacturer's instructions. Unreacted dye was removed with the dye removal column supplied in the Protein Labelling Kit RED-NHS (NanoTemper Technologies) or desalting column (Bio-Rad). The purity was monitored by measuring the ratio of protein to dye (for example, spectroscopically by measuring absorption at 280 nm for protein and 650 nm for the dye; molar absorbance: 239,000 M⁻¹ cm⁻¹) after the clean-up procedure. The labelled targets were adjusted to appropriate concentration for detection. The ligands were dissolved in reaction buffer and a series of 16 1:1 dilutions was prepared. For the measurement, each ligand dilution was mixed with one volume of labelled protein target. After 10 min incubation, the samples were loaded into standard or premium Monolith NT.115 Capillaries (NanoTemper Technologies). MST was measured using a Monolith NT.115 instrument (NanoTemper Technologies) at an ambient temperature of 25° C. Instrument parameters were adjusted to 20% LED power and medium MST power. Data of three independently pipetted measurements were analyzed (MO.Affinity Analysis software version 2.1.3, NanoTemper Technologies) using the signal from an MST-on time of 5 s.

B1: αsyn(48-60) (peptide)
peptide: VVHGVATVAEKTK
notes: Synthesized peptide; also called β2-strand peptide αsyn(48-60); SIM 2 (residues 48-60)
Regarding B1, the binding result in the assay with SUMO1(15-55) [1] is “binds”.

B2: SUMO1(31-55) (peptide)
peptide: SSEIHFKVKMTTHLKKLKESYCQRQ
notes: also called SUMO(31-55)
Regarding B2, in assay [2], the binding result is “binds”.

B3: αsyn(74-84) (peptide)
peptide: VTAVAQKTVEG
notes: Peptide fragment of α-synuclein; also called β4 strand peptide
Consider B3, for which the Kd with SUMO1(15-55) [3] amounted to 2.21 µM. This lies in the single-digit micromolar range.

B4: αsyn(35-45) (peptide)
peptide: EGVLYVGSKTK
notes: Synthesized peptide fragment of α-synuclein; also called β1 strand peptide; β1-strand peptide-αsyn (35-45)
In the assay with SUMO1(15-55) [3], B4 showed a Kd of 1.15 µM. Against the preceding molecule, the Kd is about 1.9-fold lower.
